The values below come from publication PMC12489471, “A multi-dentate, cooperative interaction between endo- and exo-ribonucleases within the bacterial RNA degradosome” (Nucleic Acids Research, 2025).

By stoichiometry N is commonly meant the number of molecules, sites or subunits per partner or assembly.

The labels stand for the following.
B3: E. coli PNPase core (domain or fragment, UniProt P05055 1-552, looked up)
chain: MLNPIVRKFQYGQHTVTLETGMMARQATAAVMVSMDDTAVFVTVVGQKKAKPGQDFFPLTVNYQERTYAAGRIPGSFFRREGRPSEGETLIARLIDRPIRPLFPEGFVNEVQVIATVVSVNPQVNPDIVAMIGASAALSLSGIPFNGPIGAARVGYINDQYVLNPTQDELKESKLDLVVAGTEAAVLMVESEAQLLSEDQMLGAVVFGHEQQQVVIQNINELVKEAGKPRWDWQPEPVNEALNARVAALAEARLSDAYRITDKQERYAQVDVIKSETIATLLAEDETLDENELGEILHAIEKNVVRSRVLAGEPRIDGREKDMIRGLDVRTGVLPRTHGSALFTRGETQALVTATLGTARDAQVLDELMGERTDTFLFHYNFPPYSVGETGMVGSPKRREIGHGRLAKRGVLAVMPDMDKFPYTVRVVSEITESNGSSSMASVCGASLALMDAGVPIKAAVAGIAMGLVKEGDNYVVLSDILGDEDHLGDMDFKVAGSRDGISALQMDIKIEGITKEIMQVALNQAKGARLHILGVMEQAINAPRGDISEFA
notes: polynucleotide phosphorylase (PNPase) core lacking the KH and S1 domains, E. coli, aa 1–552 by the methods (1–550 in the results and a legend); also called PNPase core (1–550); PNPase core (aa 1–552); source: E. coli Evo21(DE3), purified (Ni-NTA, intein cleavage, HIC, Q, Superdex 200); not shown: Mycobacterium xenopi GyrA intein, C-terminal, cleaved; His8, C-terminal, cleaved

For one series, the system named is PNPase core. As to conditions: X-ray, PDB: 3GCM; cited from earlier work. An excerpt:
Previous studies identified a PNPase binding motif encompassing residues 1039–1061 at the very C-terminus of E. coli RNase E (Fig. 1). […] Following the β-strand, there is a stretch of eight residues containing three prolines and two charged amino acids. The RNase E residues 1048–1061 will be referred to as ‘β1 motif’ hereafter (Fig. 2A). Multiple sequence alignment s ...

The target of the series “E. coli PNPase core” is B3. As to the kind of experiment: cryo-EM structure; purified PNPase core and RNase E-muGFP-CHis mixed 1:2, complex separated on Superdex 200 Increase in 20 mM Tris–HCl pH 8.0, 25 mM MgCl2, 150 mM KCl, 1 mM TCEP; 8 mM CHAPSO; E. coli and S. enterica proteins. As to conditions: both partners purified.
Series [1] deals with the molecule itself. Described as above.
Series [2] deals with the molecule itself. Kind of series: cryo-EM structure; PNPase core with RNase E peptide 960–1061; resolution of the peptide insufficient to align the sequence.

As for “RNase E residues 1021–1061: peptide encompassing RNase E residues 1021–1061 in crystal structure with PNPase (EAPRHSDWQRPTFAFEGKGAAGGHTATHHASAAPARPQPVE; UniProt P21513 1021-1061, looked up, fragment)”, the “binding mode in crystal structure” value in the series on PNPase core is “forms a β-strand that extends an exposed β-sheet of the PNPase core”.

B1: E. coli RNase E 921–1061-muGFP (domain or fragment, UniProt P21513 921-1061, looked up)
chain: AVTEQPQVITESDVAVAQEVAEQAEPVVEPQEETADIEEVVETAEVVVAEPEVVAQPAAPVVAEVAAEVETVAAVEPEVTVEHNHATAPMTRAPAPEYVPEAPRHSDWQRPTFAFEGKGAAGGHTATHHASAAPARPQPVE
notes: Only residues 1003–1057 are built in the model; also called RNase E-muGFP-Chis; RNE-muGFP-CHis; source: E. coli Evo21(DE3), purified (Ni-NTA, amylose, TEV, Q, Superdex 200); not shown: MBP, N-terminal, cleaved; muGFP, C-terminal, kept; His8, C-terminal, kept
Turning to B1, the “stoichiometry N” value in the series with E. coli PNPase core is 1 RNase E peptide per PNPase trimer.

B2: S. enterica PNPase core (domain or fragment, Salmonella enterica serovar Typhimurium, UniProt Q8ZLT3 1-552, looked up)
chain: MLNPIVRKFQYGQHTVTLETGMMARQATAAVMVSMDDTAVFVTVVGQKKAKPGQDFFPLTVNYQERTYAAGRIPGSFFRREGRPSEGETLIARLIDRPVRPLFPEGFVNEVQVIATVVSVNPQVNPDIVAMIGASAALSLSGIPFNGPIGAARVGYINDQYVLNPTQDELKESKLDLVVAGTEAAVLMVESEAELLSEDTMLGAVVFGHEQQQVVIQAINDLVKEAGKPRWDWQPEAVNDALNARVAALAESRLSDAYRITDKQERYAQVDVIKSETIEQLIAEDETLDANELGEILHAIEKNVVRSRVLAGEPRIDGREKDMIRGLDVRTGVLPRTHGSALFTRGETQALVTATLGTARDAQVLDELMGERTDSFLFHYNFPPYSVGETGMVGSPKRREIGHGRLAKRGVLAVMPDMDKFPYTVRVVSEITESNGSSSMASVCGASLALMDAGVPIKAAVAGIAMGLVKEGDNYVVLSDILGDEDHLGDMDFKVAGSRDGISALQMDIKIEGITKEIMQVALNQAKGARLHILGVMEQAINAPRGDISEFA
notes: polynucleotide phosphorylase (PNPase) core, Salmonella enterica serovar Typhimurium, aa 1–552; also called Salmonella typhimurium polynucleotide phosphorylase core; source: E. coli Evo21(DE3), purified (Ni-NTA, intein cleavage, HIC, Q, Superdex 200); not shown: Mycobacterium xenopi GyrA intein, C-terminal, cleaved; His8, C-terminal, cleaved
On to B2, for which, in series [1], the “stoichiometry N” value was found to be 3.
B3: the “stoichiometry N” value in series [2] came to 3.
